Data reported in article PMC5444840.
Where two headings read alike, the source gives them in different places.

Assays:
Assay in all cases: SPR; multi-cycle kinetics, Biacore X-100: rSgC or IgD amine-coupled on a CM4 chip; different chemokine concentrations at 30 ul/min, 180 s contact, 600 s dissociation, HBS-EP pH 7.4; global fit to a 1:1 Langmuir model
[1] = biological target: VZV gC IgD (amino acids P140 to V531, with the predicted immunoglobulin-like domains) (Varicella zoster virus, Dumas strain)
Chain of VZV gC IgD (amino acids P140 to V531, with the predicted immunoglobulin-like domains) (Varicella zoster virus, Dumas strain) (P09256 171-562 limits assumed): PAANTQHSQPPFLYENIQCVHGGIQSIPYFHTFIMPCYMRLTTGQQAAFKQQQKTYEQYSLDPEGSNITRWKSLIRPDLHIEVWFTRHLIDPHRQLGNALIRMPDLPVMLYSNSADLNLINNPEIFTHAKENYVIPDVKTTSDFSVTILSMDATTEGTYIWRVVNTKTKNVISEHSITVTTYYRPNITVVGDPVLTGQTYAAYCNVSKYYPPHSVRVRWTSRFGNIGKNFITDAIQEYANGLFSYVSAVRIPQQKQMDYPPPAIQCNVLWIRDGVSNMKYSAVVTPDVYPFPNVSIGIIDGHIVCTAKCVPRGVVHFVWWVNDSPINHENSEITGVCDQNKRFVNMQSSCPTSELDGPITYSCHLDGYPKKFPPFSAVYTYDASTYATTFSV

[2] = biological target: recombinant soluble VZV glycoprotein C ectodomain (VZV rSgC) (Varicella zoster virus, Dumas strain)
Chain of recombinant soluble VZV glycoprotein C ectodomain (VZV rSgC) (Varicella zoster virus, Dumas strain) (P09256 54-562 limits assumed): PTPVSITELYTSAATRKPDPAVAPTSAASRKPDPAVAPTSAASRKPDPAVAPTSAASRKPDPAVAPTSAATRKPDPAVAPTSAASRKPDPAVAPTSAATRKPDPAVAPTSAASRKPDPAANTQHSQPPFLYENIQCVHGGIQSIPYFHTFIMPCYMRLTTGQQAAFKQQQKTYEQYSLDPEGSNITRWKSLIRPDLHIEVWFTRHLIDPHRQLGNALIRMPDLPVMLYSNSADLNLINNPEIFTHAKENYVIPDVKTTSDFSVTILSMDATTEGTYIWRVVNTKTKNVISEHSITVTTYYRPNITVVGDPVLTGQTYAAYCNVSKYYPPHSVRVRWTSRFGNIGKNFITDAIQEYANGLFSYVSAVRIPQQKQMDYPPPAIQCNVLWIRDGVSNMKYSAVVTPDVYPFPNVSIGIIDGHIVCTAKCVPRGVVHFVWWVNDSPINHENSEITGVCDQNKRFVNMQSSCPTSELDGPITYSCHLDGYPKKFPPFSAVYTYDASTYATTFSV

[3] = biological target: VZV gC IgD (amino acids P140 to V531, with the predicted immunoglobulin-like domains) (Varicella zoster virus, Dumas strain); remark: listed apart in the source
[4] = biological target: recombinant soluble VZV glycoprotein C ectodomain (VZV rSgC) (Varicella zoster virus, Dumas strain); remark: listed apart in the source

Question: For “CCL13 (from UniProt Q99616 17-98) (ligand)”, which Kd [1] is on record?
Answer: 0.299 nM

Question: What about the koff [1] of the same molecule?
Answer: 0.00389 s⁻¹

Question: And the kon [1]?
Answer: 1.3e+07 M⁻¹ s⁻¹

Question: And the t(1/2) [1]?
Answer: 2.97 min

Question: What about the Kd [2] of the same molecule?
Answer: 0.176 nM

Question: What about the koff [2] of the same molecule?
Answer: 0.00184 s⁻¹

Question: And the kon [2]?
Answer: 1.04e+07 M⁻¹ s⁻¹

Question: What about the t(1/2) [2] of the same molecule?
Answer: 6.29 min

Question: Which Kd [1] does the source give for “CCL19 (from UniProt Q99731 22-98) (ligand)” here?
Answer: 0.118 nM

Question: What about the koff [1] of the same molecule?
Answer: 0.00161 s⁻¹

Question: And the kon [1]?
Answer: 1.37e+07 M⁻¹ s⁻¹

Question: What about the t(1/2) [1] of the same molecule?
Answer: 7.18 min

Question: And the Kd [2]?
Answer: 0.138 nM

Question: What about the koff [2] of the same molecule?
Answer: 0.00212 s⁻¹

Question: And the kon [2]?
Answer: 1.54e+07 M⁻¹ s⁻¹

Question: What about the t(1/2) [2] of the same molecule?
Answer: 5.46 min

Question: Which Kd [1] does the source give for “CCL2 (from UniProt P13500 24-99) (ligand)” here?
Answer: 6.05 nM

Question: What about the koff [1] of the same molecule?
Answer: 0.0013 s⁻¹

Question: And the kon [1]?
Answer: 214000 M⁻¹ s⁻¹

Question: What about the t(1/2) [1] of the same molecule?
Answer: 8.91 min

Question: What about the Kd [2] of the same molecule?
Answer: 5.84 nM

Question: What about the koff [2] of the same molecule?
Answer: 0.00101 s⁻¹

Question: And the kon [2]?
Answer: 173000 M⁻¹ s⁻¹

Question: What about the t(1/2) [2] of the same molecule?
Answer: 11.4 min

B1: CXCL13 (ligand)
chain: VLEVYYTSLRCRCVQESSVFIPRRFIDRIQILPRGNGCPRKEIIVWKKNKSIVCVDPQAEWIQRMMEVLRKRSSSTLPVPVFKRKIP
Question: Which Kd [3] does the source give for B1 here?
Answer: 0.567 nM

Question: And the koff [3]?
Answer: 0.0015 s⁻¹

Question: And the kon [3]?
Answer: 2.64e+06 M⁻¹ s⁻¹

Question: And the t(1/2) [3]?
Answer: 7.72 min

Question: What about the Kd [4] of the same molecule?
Answer: 0.422 nM

Question: And the koff [4]?
Answer: 0.00251 s⁻¹

Question: And the kon [4]?
Answer: 5.94e+06 M⁻¹ s⁻¹

Question: What about the t(1/2) [4] of the same molecule?
Answer: 4.61 min
